Reference: patent US20250283117, “RNA-GUIDED NUCLEASES AND ACTIVE FRAGMENTS AND VARIANTS THEREOF AND METHODS OF USE” (Life Edit Therapeutics, Inc., published 2025)

T1: APG07433.1 (Bacillus sp.)
T1 sequence: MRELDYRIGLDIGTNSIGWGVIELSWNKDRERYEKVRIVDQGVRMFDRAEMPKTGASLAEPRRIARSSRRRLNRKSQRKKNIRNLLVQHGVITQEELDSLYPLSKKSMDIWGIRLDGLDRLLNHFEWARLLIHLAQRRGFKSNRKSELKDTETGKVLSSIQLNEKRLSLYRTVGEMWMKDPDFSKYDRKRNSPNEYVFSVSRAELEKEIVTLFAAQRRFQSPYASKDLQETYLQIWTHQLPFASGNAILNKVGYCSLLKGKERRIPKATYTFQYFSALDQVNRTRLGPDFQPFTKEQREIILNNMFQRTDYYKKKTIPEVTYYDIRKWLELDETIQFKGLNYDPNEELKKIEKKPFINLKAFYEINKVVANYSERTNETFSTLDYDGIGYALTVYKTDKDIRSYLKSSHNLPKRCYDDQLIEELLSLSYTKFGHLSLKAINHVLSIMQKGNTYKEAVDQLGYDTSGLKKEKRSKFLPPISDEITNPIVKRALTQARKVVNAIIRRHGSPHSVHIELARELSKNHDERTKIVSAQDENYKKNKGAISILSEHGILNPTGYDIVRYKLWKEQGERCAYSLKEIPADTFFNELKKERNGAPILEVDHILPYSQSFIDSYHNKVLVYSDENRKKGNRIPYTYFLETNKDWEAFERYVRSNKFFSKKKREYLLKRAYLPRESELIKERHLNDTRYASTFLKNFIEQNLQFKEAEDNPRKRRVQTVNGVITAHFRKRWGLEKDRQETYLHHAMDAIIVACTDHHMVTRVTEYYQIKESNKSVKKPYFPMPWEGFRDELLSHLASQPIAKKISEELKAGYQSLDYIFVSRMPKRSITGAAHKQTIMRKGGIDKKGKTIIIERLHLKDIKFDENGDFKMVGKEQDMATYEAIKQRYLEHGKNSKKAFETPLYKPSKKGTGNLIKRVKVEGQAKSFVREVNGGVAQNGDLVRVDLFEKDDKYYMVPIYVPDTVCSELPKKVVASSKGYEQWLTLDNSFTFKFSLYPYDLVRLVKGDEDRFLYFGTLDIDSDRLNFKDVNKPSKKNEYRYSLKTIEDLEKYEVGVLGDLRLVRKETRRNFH

T2: APG05083.1 (Bacillus sp.)
T2 chain: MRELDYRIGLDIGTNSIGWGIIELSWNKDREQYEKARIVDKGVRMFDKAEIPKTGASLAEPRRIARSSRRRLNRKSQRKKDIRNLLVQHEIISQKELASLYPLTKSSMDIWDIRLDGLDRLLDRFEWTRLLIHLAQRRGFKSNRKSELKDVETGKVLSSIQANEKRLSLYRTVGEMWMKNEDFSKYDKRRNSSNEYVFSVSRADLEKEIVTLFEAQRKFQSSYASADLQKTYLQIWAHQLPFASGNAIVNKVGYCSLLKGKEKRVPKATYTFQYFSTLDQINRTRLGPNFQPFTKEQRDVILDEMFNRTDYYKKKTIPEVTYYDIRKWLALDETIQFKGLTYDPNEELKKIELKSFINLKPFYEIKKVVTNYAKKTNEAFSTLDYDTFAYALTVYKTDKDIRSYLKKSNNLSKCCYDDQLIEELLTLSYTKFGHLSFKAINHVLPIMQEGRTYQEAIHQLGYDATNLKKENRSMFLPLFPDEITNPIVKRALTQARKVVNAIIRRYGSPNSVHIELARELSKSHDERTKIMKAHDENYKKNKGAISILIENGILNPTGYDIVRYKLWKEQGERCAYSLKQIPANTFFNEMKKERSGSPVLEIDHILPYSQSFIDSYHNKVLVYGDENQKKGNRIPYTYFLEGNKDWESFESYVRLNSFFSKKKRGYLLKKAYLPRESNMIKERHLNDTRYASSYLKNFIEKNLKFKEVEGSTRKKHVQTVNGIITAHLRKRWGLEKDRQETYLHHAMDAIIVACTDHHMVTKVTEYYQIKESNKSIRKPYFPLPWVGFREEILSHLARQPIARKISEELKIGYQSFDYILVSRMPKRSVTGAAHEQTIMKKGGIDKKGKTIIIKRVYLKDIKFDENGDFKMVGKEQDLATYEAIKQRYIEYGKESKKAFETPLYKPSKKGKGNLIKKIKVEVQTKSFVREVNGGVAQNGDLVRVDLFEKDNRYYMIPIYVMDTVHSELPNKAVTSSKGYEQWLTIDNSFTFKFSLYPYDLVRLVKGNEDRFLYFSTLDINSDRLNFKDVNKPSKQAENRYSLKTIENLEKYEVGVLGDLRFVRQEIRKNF

T3: APG07513.1 (Bacillus sp.)
T3 chain: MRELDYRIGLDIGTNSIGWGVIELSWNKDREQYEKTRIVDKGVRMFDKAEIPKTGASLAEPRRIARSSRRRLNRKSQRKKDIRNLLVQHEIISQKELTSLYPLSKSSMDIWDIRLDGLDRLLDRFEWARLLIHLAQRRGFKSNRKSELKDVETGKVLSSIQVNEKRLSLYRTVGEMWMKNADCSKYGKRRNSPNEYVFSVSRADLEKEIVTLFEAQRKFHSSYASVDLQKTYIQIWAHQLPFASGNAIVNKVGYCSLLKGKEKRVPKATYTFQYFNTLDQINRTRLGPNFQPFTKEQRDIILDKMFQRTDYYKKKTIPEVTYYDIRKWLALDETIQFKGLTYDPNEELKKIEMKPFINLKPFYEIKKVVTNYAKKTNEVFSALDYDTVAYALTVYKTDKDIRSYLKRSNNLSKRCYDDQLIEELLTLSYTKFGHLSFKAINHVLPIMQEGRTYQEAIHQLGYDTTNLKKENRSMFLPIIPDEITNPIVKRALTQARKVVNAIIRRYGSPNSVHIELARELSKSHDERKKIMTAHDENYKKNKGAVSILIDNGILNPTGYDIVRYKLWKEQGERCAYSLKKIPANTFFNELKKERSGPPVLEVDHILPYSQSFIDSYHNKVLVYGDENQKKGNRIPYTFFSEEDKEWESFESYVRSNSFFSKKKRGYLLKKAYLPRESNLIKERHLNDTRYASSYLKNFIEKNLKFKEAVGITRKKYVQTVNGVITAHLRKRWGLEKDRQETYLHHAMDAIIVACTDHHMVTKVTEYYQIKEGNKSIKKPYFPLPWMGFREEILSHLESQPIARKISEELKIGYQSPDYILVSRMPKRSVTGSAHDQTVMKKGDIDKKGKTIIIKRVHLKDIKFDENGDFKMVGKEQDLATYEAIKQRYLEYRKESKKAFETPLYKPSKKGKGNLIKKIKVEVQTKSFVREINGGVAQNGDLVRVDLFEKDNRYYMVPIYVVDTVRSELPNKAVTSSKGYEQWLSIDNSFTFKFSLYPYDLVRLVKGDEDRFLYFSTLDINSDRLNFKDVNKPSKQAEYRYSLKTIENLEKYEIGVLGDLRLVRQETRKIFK

T4: APG07433.1 (Bacillus sp.)
T4 chain: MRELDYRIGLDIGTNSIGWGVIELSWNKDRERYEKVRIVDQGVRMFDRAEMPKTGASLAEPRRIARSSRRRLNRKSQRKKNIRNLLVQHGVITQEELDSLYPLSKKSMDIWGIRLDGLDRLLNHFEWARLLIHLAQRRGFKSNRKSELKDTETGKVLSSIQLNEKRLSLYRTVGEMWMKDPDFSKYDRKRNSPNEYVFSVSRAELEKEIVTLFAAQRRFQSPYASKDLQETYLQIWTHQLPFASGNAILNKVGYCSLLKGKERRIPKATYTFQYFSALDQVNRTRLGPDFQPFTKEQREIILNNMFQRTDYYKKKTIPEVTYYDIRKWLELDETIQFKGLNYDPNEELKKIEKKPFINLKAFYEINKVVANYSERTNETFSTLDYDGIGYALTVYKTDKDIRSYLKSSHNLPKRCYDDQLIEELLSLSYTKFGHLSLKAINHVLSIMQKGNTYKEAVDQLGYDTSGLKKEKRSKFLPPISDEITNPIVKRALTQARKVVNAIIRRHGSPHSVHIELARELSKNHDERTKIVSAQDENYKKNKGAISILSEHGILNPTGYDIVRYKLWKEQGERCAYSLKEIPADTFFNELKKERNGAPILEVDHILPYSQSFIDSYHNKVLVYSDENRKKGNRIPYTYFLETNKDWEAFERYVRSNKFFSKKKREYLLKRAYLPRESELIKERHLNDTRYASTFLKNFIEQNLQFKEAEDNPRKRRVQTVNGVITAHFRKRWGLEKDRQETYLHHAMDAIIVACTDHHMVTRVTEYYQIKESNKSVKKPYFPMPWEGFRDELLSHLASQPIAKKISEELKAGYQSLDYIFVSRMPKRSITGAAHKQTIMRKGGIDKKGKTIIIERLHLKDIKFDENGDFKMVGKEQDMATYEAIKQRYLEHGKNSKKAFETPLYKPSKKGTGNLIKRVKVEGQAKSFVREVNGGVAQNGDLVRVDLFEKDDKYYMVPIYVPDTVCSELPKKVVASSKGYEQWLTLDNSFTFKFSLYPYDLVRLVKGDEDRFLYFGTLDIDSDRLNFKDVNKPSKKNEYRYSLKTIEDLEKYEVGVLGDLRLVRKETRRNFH


Assays:
[1] = system: T1, APG07433.1 (Bacillus sp.); assay: cleavage_in_vitro; details: PAM NNNNCC; NTS cut 4, TS cut 3, 1 nt 5' overhang (Table 3)
APG05083.1 = biological target: T2, APG05083.1; assay: cell_activity; HEK293T; PAM NNNNCC; details: tags: E. coli pRSF-1b expression; human cells: N-term SV40 NLS and 3xFLAG, C-term nucleoplasmin NLS
Procedure: (§1) The constructs described above were introduced into mammalian cells. One day prior to transfection, 1×10⁵ HEK293T cells/well (Sigma) were plated in 24-well dishes in Dulbecco's modified Eagle medium (DMEM) plus 10% (vol/vol) fetal bovine serum (Gibco) and 1% Penicillin-Streptomycin (Gibco). The next day when the cells were at 50-60% confluency, 500 ng of a RGN expression plasmid plus 500 ng of a single gRNA expression plasmid were co-transfected using […] of Lipofectamine 3000 (Thermo Scientific) per well, following the manufacturer's instructions. After 48 hours of growth, total genomic DNA was harvested using a genomic DNA isolation kit (Machery-Nagel) according to the manufacturer's instructions.
(§2) Additionally, products from PCR #2 containing Illumina overhang sequences underwent library preparation following the Illumina 16S Metagenomic Sequencing Library protocol. Deep sequencing was performed on an Illumina Mi-Seq platform by a service provider (MOGene). Typically 200,000 of 250 bp paired-end reads (2×100,000 reads) are generated per amplicon. The reads were analyzed using CRISPResso (Pinello, et al. 2016 Nature Biotech, 34:695-697) to calculate the rates of editing. Output alignments were hand-curated to confirm insertion and deletion sites as well as identify microhomology sites at the recombination sites. All experiments were performed in human cells. The “target sequence” is the targeted sequence within the gene target. For each target sequence, the guide RNA comprised the complementary RNA target sequence and the appropriate sgRNA depending on the RGN used.

APG07513.1 = biological target: T3, APG07513.1; assay: cell_activity; HEK293T; PAM NNNNCC; details: tags: E. coli pRSF-1b expression; human cells: N-term SV40 NLS and 3xFLAG, C-term nucleoplasmin NLS
Procedure: as §1, §2

APG07433.1 = biological target: T4, APG07433.1; assay: cell_activity; HEK293T; PAM NNNNCC; details: tags: human cells: N-term SV40 NLS and 3xFLAG, C-term nucleoplasmin NLS
Procedure: as §1, §2

Molecule | activity (APG05083.1) | activity (APG07513.1) | other results
GAGCGGACAGCAGCUUCCUAUAUCUCGUACNNNNNNNNNNNNNNNNNNNNNNNNNGUCAUAGUUCCAUUAAAGCCAAAAGUGGCUUUGAUGUUUCUAUGAUAAGGGUUUCGACCCGUGGCGUCGGGGAUCGCCUGCCCAUUGAAAUGGGCUUCUCCCCAUUUAUU / GAGCGGACAGCAGCTTCCTATATCTCGTAC / GTACGAGATATAGGAAGCTGCTGTCCGCTC [Sequence 1 sgRNA for APG07433.1 ; Sequence 1 target] | – | – | activity [1]: 86 % cleaved
Guide 185 ; RelA target of guide 185 (ssRNA ; dsDNA) RNA: GGACAGUGCGCAUCUCCCUGGUCAUAGUUCCAUUAUUGCAAAGGCUUUGAUGUUUCUAUGAUAAGGGCUUAGGCCCGUGGCGUUGGGGAUCGCCUGCCCAUUUUAAUGGGCUUCUCCCCAUCUAUUU DNA 1: GGACAGTGCGCATCTCCCTG DNA 2: CAGGGAGATGCGCACTGTCC | 8.2 % editing | – | –
Guide 136 ; AurkB target of guide 136 (ssRNA ; dsDNA) RNA: GGGCCAUUAAAACCUCUCCAGUCAUAGUUCCAUUAAAGCCAUUGCUGAAAGACAGCAAUGGCUUUGAUGUUUCUAUGAUAAGGGCUUCGGCCCGUGGCGUUGGGGAUCGCCUGCCCAUUUUAAUGGGCUUCUCCCCAUCUAUUU DNA 1: GGGCCATTAAAACCTCTCCA DNA 2: TGGAGAGGTTTTAATGGCCC | – | 0.9 % editing | –
Guide 173 ; HPRT1 target of guide 173 (ssRNA ; dsDNA) RNA: CUUCUAUAGCCUCCUUCCCCGUCAUAGUUCCAUUAAAGCCAAAAGUGGCUUUGAUGUUUCUAUGAUAAGGGUUUCGACCCGUGGCGUCGGGGAUCGCCUGCCCAUUGAAAUGGGCUUCUCCCCAUUUAUU DNA 1: CTTCTATAGCCTCCTTCCCC DNA 2: GGGGAAGGAGGCTATAGAAG | – | – | activity (APG07433.1): 26.6 % editing
Guide 168 ; HPRT1 target of guide 168 (ssRNA ; dsDNA) RNA: CACAUCUCGAGCAAGACGUUGUCAUAGUUCCAUUAUUGCAAAGGCUUUGAUGUUUCUAUGAUAAGGGCUUAGGCCCGUGGCGUUGGGGAUCGCCUGCCCAUUUUAAUGGGCUUCUCCCCAUCUAUUU DNA 1: CACATCTCGAGCAAGACGTT DNA 2: AACGTCTTGCTCGAGATGTG | 11.3 % editing | – | –
Guide 144 ; AurkB target of guide 144 (ssRNA ; dsDNA) RNA: CAUGGCAGUACAUUAGAGCAGUCAUAGUUCCAUUAAAGCCAUUGCUGAAAGACAGCAAUGGCUUUGAUGUUUCUAUGAUAAGGGCUUCGGCCCGUGGCGUUGGGGAUCGCCUGCCCAUUUUAAUGGGCUUCUCCCCAUCUAUUU DNA 1: CATGGCAGTACATTAGAGCA DNA 2: TGCTCTAATGTACTGCCATG | – | 2.4 % editing | –
